Experimental data taken from article PMC3458536 (Nucleic Acids Research, 2012).

B1: His-C (C-terminal B/A repeat domain of YB-1, amino acids 128-324) (domain or fragment)
chain: PGGVPVQGSKYAADRNHYRRYPRRRGPPRNYQQNYQNSESGEKNEGSESAPEGQAQQRRPYRRRRFPPYYMRRPYGRRPQYSNPPVQGEVMEGADNQGAGEQGRPVRQNMYRGYRPRFRRGPPRQRQPREDGNEEDKENQGDETQGQQPPQRRYRRNFNYRRRRPENPKPQDGKETKAADPPAENSSAPEAEQGGAE
B2: GST-U2AF35 (natural protein)
chain: MAEYLASIFGTEKDKVNCSFYFKIGACRHGDRCSRLHNKPTFSQTIALLNIYRNPQNSSQSADGLRCAVSDVEMQEHYDEFFEEVFTEMEEKYGEVEEMNVCDNLGDHLVGNVYVKFRREEDAEKAVIDLNNRWFNGQPIHAELSPVTDFREACCRQYEMGECTRGGFCNFMHLKPISRELRRELYGRRRKKHRSRSRSRERRSRSRDRGRGGGGGGGGGGGGRERDRRRSRDRERSGRF

Tests used:
Experiment in all cases: pull-down
GST-U2AF65 = GST-U2AF65 (UniProt P26368 1-475)
Sequence of GST-U2AF65 (P26368 whole entry, one chain of several): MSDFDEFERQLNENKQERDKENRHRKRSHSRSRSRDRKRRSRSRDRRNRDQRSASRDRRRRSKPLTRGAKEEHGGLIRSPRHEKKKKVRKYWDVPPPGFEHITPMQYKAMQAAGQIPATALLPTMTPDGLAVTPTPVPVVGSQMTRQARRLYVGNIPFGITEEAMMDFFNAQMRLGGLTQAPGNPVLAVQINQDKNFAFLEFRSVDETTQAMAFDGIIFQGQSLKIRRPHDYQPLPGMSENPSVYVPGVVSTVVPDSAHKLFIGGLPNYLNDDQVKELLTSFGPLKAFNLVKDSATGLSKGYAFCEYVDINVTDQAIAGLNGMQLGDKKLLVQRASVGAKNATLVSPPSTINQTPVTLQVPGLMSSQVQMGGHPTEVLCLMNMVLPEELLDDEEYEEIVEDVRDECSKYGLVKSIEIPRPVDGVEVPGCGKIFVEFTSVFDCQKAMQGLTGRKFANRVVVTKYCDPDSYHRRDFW

GST-U2AF35 = target: B2
[1] = target: His-YB-1 (recombinant His-tagged full-length YB-1) (human, UniProt P67809 1-324)

binding result (GST-U2AF65) | binding result (GST-U2AF35) | binding result [1] | Binder
binds | binds | – | B1
– | – | binds | B2
